Data reported in PMC3832671, “Two Homologous EF-G Proteins from Pseudomonas aeruginosa Exhibit Distinct Functions” (PLoS ONE, 2013).

Key:
[1] = system: T1, Nc1nc2c(ncn2[C@@H]2O[C@H](COP(=O)(O)OP(=O)(O)OP(=O)(O)O)[C@@H](O)[C@H]2O)c(=O)[nH]1; assay: ribosome-dependent GTPase, colorimetric Pi release, Lineweaver-Burk; assay type: biochemical, Pseudomonas aeruginosa; conditions: P. aeruginosa ribosomes 0.4 μM, EF-G1B 0.3 μM, 10 mM MgCl2, 70 mM NH4Cl, pH 7.5, 37 °C, kcat is kcat^obs, text b30 prints 71 μM
T1 construct: full length (702 residues) with N-terminal 6xHis tag from pET-28b(+), NheI/HindIII; expressed in E. coli Rosetta 2(DE3); about 77 kDa
Description: ribosome-dependent GTPase, colorimetric Pi release, Lineweaver-Burk on EF-G1B

[2] = system: T2, Nc1nc2c(ncn2[C@@H]2O[C@H](COP(=O)(O)OP(=O)(O)OP(=O)(O)O)[C@@H](O)[C@H]2O)c(=O)[nH]1; assay: as above; assay type: biochemical, Pseudomonas aeruginosa; conditions: P. aeruginosa ribosomes 0.4 μM, EF-G1A 1.0 μM, 10 mM MgCl2, 70 mM NH4Cl, pH 7.5, kcat is kcat^obs
T2 construct: full length (706 residues) with N-terminal 6xHis tag from pET-28b(+), NheI/HindIII; expressed in E. coli Rosetta 2(DE3); about 77 kDa
Description: ribosome-dependent GTPase, colorimetric Pi release, Lineweaver-Burk on EF-G1A

Row | Substance | Km [1] | kcat [1] | kcat/Km [1] | Km [2] | kcat [2] | kcat/Km [2]
1 | EF-G1B (Pseudomonas aeruginosa PAO1) | 70 µM | 0.2 s⁻¹ | 3000 M⁻¹ s⁻¹ |  |  | 
2 | EF-G1A (Pseudomonas aeruginosa PAO1) |  |  |  | 85 µM | 0.04 s⁻¹ | 500 M⁻¹ s⁻¹
